Data published in patent US20070212355A1 (priority 2005, published 2007).
Read-outs that look alike come from different tables or passages of the source. Each block holds one molecule with its values, some of them ahead of it. Ends that are not written are not given here.

Tests used:
mutated human GLP-2R [1] = biological target: T1, mutated human GLP-2R (Homo sapiens, UniProt O95838, E512D/G511A/L513V); experiment: cAMP expression assay in HEK 293E clonal cell line expressing mutated human GLP-2R; format: cell-based; details: for activity relative to wild type GLP-2 (times less): from Table 5 EC50 values
T1 construct: expressed in transfected cells; host or cells: HEK 293E clonal cell line
T1 sequence (O95838 1-553 G511A/E512D/L513V): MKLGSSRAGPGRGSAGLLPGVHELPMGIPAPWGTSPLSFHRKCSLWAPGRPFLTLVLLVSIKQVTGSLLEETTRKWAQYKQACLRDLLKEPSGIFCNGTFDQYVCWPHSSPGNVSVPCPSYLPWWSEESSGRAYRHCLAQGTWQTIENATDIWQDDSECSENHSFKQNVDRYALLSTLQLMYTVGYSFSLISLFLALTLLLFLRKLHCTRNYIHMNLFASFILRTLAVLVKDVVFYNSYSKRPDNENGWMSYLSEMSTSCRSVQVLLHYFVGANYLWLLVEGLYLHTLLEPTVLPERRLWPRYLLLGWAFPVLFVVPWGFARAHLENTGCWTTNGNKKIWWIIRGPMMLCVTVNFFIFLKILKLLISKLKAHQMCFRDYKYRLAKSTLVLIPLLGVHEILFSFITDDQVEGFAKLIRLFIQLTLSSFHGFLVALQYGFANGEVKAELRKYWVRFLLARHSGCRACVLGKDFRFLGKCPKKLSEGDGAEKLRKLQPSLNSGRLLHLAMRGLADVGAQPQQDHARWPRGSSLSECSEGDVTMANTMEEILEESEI
Text: To achieve this goal, a clonal cell line expressing a mutated human GLP-2R was generated by transfecting HEK 293E cells. The mutated human GLP-2R differs from the wild-type human GLP-2R (SEQ ID NO: 35) at three amino acid positions within the C-terminal intracellular region (SEQ ID NO: 36).
The cAMP expression was quantitated using the cAMP Direct Screen System (Cat. No. CSD 200, Applied Biosystems, Bedford, Mass.).
This assay was based on the cAMP Direct Screen System from Applied Biosystems utilizing a cell line expressing mutated huGLP-2R in HEK 293E cells. Peptide at concentrations ranging from 0.01 nM to 1.0 uM in PBS with 0.5% BSA was added to ˜50,000 cells suspended in 96-well plates. After a 30-minute incubation at 37° C., Lysis Buffer followed by luminescence reagents (Applied Biosystems) was added according to the manufacturers' procedures (Applied Biosystems Luminescence protocol: cAMP-Screen Direct System). Luminescence was quantitated using a TopCount liquid scintillation analyzer (PerkinElmer), and data was processed using Softmax software (Molecular Devices Corporation).

[2] = SEC-SLS self-association of peptides in PBS (pH 7.5); format: physicochemical; details: 1 mg/ml
Description: The self-association poses a challenge to the development and manufacturing of a homogeneous therapeutic.
Solution molecular weight of the peptides was measured by SEC-SLS. Briefly, peptide solutions in PBS (pH 7.5) at 0.4 to 2.0 mg/mL were fractionated over a Superdex peptide column (Amersham Pharmacia). The eluted peaks were monitored by static light scattering at 690 nm and solution molecular weight was determined at UV 280 nm using the Astra software package (Wyatt Inc.).

[3] = CD spectra secondary structure of peptides; format: physicochemical; details: 0.2 mg/mL in PBS, 25° C.
Description: The secondary structures of tested peptides were determined using 0.2 mg/mL peptide solutions in PBS. Briefly, CD spectra were collected in triplicate at 1 nm intervals at 25° C. in 0.1 cm path length cell. Secondary structures were determined by fitting of the CD spectra using CD spectra software (CD Spectra Deconvolution software 2.1). All tested peptides contained peaks corresponding to the presence of alpha helices.

[4] = biological target: mutated human GLP-2R (human) (UniProt O95838); experiment: cell-based or functional assay
mutated human GLP-2R [5] = biological target: T2, mutated human GLP-2R (human, UniProt O95838 1-553); experiment: cell-based or functional assay
T2 chain: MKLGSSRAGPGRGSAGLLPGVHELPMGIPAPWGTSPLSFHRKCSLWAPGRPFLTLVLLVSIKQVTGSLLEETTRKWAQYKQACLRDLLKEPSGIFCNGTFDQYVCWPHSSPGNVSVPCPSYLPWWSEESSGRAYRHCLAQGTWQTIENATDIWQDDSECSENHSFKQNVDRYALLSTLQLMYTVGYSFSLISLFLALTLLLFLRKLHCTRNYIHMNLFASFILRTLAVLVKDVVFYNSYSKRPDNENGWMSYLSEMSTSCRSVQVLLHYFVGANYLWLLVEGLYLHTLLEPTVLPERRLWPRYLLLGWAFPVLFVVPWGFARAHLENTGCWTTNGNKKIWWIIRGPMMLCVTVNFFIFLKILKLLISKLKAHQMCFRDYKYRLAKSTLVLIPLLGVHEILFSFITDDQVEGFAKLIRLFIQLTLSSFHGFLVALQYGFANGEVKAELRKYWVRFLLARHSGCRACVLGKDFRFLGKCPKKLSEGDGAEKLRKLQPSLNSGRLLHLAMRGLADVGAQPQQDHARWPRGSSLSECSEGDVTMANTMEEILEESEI

mutated human GLP-2R [6] = biological target: T2, mutated human GLP-2R; experiment: cell-based or functional assay
[7] = biological target: the molecule itself; experiment: SEC-SLS, self-association in PBS pH 7.5
[8] = Table 1, mimetibodies with variable linker length / V2 variant, read-out: EC50
[9] = Table 2, mimetibodies with Pro substitution, read-out: EC50

EC50 (mutated human GLP-2R [1]; [8]): 12.7 nM
Molecule: SEQ ID NO: 8: A2G GLP-2 mimetibody linker variant; core HGDGSFSDEMNTILDNLAARDFINWLIQTKITDGGGGSGGGGSGGGGSCPPCP (cysteine pairing not given here; also: core of a mimetibody, fused to further protein chains)

activity relative to wild type GLP-2 (times less) (mutated human GLP-2R [1]): 3 × | SEC-SLS elution / self-association state [2]: mainly monomeric peptide | Random coil (percentage) [3]: 41.8% | Helix (percentage of helical structure) ([3]; listed as GLP-2(A2G, L17Q)): 16.9%
Molecule: HGDGSFSDEMNTILDNQAARDFINWLIQTKITD [SEQ ID NO: 54]

Molecule: SEQ ID NO: 79: GLP-1 peptide included as control in the characterization of the analogs [reference compound]
SEC-SLS elution / self-association state [2]: single peak with molecular weight within the expected monomer size | Helix (percentage of helical structure) [3]: 16.8% | Random coil (percentage) [3]: 41.9%

activity relative to wild type GLP-2 (times less) (mutated human GLP-2R [1]): 2 × | SEC-SLS elution / self-association state [2]: mainly monomeric peptide | Random coil (percentage) [3]: 41.4% | Helix (percentage of helical structure) ([3]; listed as GLP-2(A2G, N16G, L17Q)): 17.0%
Molecule: HGDGSFSDEMNTILDGQAARDFINWLIQTKITD [SEQ ID NO: 55]

EC50 (mutated human GLP-2R [1]; [8]): 4.6 nM
Molecule: SEQ ID NO: 9: A2G GLP-2 mimetibody linker variant; core HGDGSFSDEMNTILDNLAARDFINWLIQTKITDGGGGSGGGGSGGGGSGGGGSCPPCP (cysteine pairing not given here; also: core of a mimetibody, fused to further protein chains)

EC50 (mutated human GLP-2R [1]; [8]): 40 nM
Molecule: SEQ ID NO: 6: A2G GLP-2 mimetibody linker variant; core HGDGSFSDEMNTILDNLAARDFINWLIQTKITDGGGGSCPPCP (cysteine pairing not given here; also: core of a mimetibody, fused to further protein chains)

Molecule: SEQ ID NO: 11: A2G GLP-2 mimetibody V2 region variant; core […] (HGDGSFSDEMNTILDNLAARDFINWLIQTKITDGSGGGSGALVAVSSESKYGPPCPPCP; chains of the parent or of the whole protein)
EC50 (mutated human GLP-2R [1]; [8]): 3.1 nM

EC50 (mutated human GLP-2R [1]; Example 2, 30 minutes incubation, mimetibodies vs corresponding peptides, read-out: EC50, stimulation of cAMP expression): 0.5 nM
Molecule: HSDGSFSDEMNTILDNLAARDFINWLIQTKITD [SEQ ID NO: 2, reference compound]

EC50 (mutated human GLP-2R [1]; [8]): 22.5 nM
Molecule: SEQ ID NO: 7: A2G GLP-2 mimetibody linker variant; core HGDGSFSDEMNTILDNLAARDFINWLIQTKITDGGGGSGGGGSCPPCP (cysteine pairing not given here; also: core of a mimetibody, fused to further protein chains)

Molecule: SEQ ID NO: 45: GLP-2 mimetibody Pro substitution variant; core […] (HGDGSFSDEMNTILDNLAARDFINWLIQTKITDGSGGGSGALVAVSSESKPGPPCPPCP)
EC50 (mutated human GLP-2R [1]; [9]): 5.8 nM

EC50 (mutated human GLP-2R [1]; [9]): 3.6 nM
Molecule: SEQ ID NO: 42: GLP-2 mimetibody Pro substitution variant; core HGDGSFSDEMNTILDNLAARDFINWLIQTKITDGSGGGSGALVPVSSESKYGPPCPPCP (Mimetibody)

EC50 (nM), cAMP expression assay [4]: 4.6 nM
B1: A2G GLP-2 mimetibody linker length variant SEQ ID NO: 9 (Fc fusion, part only; not given: CH2 and CH3 domains, part only)
chain, part: HGDGSFSDEMNTILDNLAARDFINWLIQTKITDGGGGSGGGGSGGGGSGGGGSCPPCP
modifications: cysteine pairing not given here; also: partial core, CH2-CH3 domains follow in the full mimetibody

EC50, cAMP expression (mutated human GLP-2R [5]): 2.2 nM | potency in cAMP expression assay, fold less than the corresponding peptide (mutated human GLP-2R [5]): ~4 fold
B2: A2S GLP-2 IgG4 mimetibody (Fc fusion)
chain: HSDGSFSDEMNTILDNLAARDFINWLIQTKITDGSGGGSGTLVTVSSESKYGPPCPPCPAPEAAGGPSVFLFPPKPDTLMISRTPEVTCVVVDVSQEDPEVQFNWYVDGVEVHNAKTKPREEQFNSTYRVVSVLTVLHQDWLNGKEYKCKVSNKGLPSSIEKTISKAKGQPREPQVYTLPPSQEEMTKNQVSLTCLVKGFYPSDIAVEWESNGQPENNYKTTPPVLDSDGSFFLYSRLTVDKSRWQEGNVFSCSVMHEALHNHYTQKSLSLSLGK

EC50 (nM), cAMP expression assay [4]: 3.1 nM
B3: A2G GLP-2 mimetibody V2 region variant SEQ ID NO: 11 (Fc fusion, not shown: a dimerising Fc or GST)
chain: HGDGSFSDEMNTILDNLAARDFINWLIQTKITDGSGGGSGALVAVSSESKYGPPCPPCP

EC50 (nM), cAMP expression assay [4]: 5.8 nM
B4: GLP-2 mimetibody Pro substitution variant SEQ ID NO: 45 (Fc fusion, not shown: a dimerising Fc or GST)
chain: HGDGSFSDEMNTILDNLAARDFINWLIQTKITDGSGGGSGALVAVSSESKPGPPCPPCP

EC50 (nM), cAMP expression assay [4]: 7.7 nM
B5: GLP-2 mimetibody Pro substitution variant SEQ ID NO: 44 (Fc fusion, not shown: a dimerising Fc or GST)
chain: HGDGSFSDEMNTILDNLAARDFINWLIQTKITDGSGGGSGALVAVSPESKYGPPCPPCP

EC50 (nM), cAMP expression assay [4]: 4.8 nM
B6: GLP-2 mimetibody Pro substitution variant SEQ ID NO: 43 (Fc fusion, not shown: a dimerising Fc or GST)
chain: HGDGSFSDEMNTILDNLAARDFINWLIQTKITDGSGGGSGALVAVPSESKYGPPCPPCP

EC50 (nM), cAMP expression assay [4]: 3.6 nM
B7: GLP-2 mimetibody Pro substitution variant SEQ ID NO: 42 (Fc fusion, not shown: a dimerising Fc or GST)
chain: HGDGSFSDEMNTILDNLAARDFINWLIQTKITDGSGGGSGALVPVSSESKYGPPCPPCP

EC50 (nM), cAMP expression assay [4]: 22.5 nM
B8: A2G GLP-2 mimetibody linker length variant SEQ ID NO: 7 (Fc fusion, part only; not given: Fc CH2 and CH3 domains, part only)
chain, part: HGDGSFSDEMNTILDNLAARDFINWLIQTKITDGGGGSGGGGSCPPCP
modifications: cysteine pairing not given here; also: partial core, CH2-CH3 domains follow in the full mimetibody

EC50 (nM), cAMP expression assay [4]: 40 nM
B9: A2G GLP-2 mimetibody linker length variant SEQ ID NO: 6 (Fc fusion, part only; not given: CH2 and CH3 domains, part only)
chain, part: HGDGSFSDEMNTILDNLAARDFINWLIQTKITDGGGGSCPPCP
modifications: cysteine pairing not given here; also: partial core, CH2-CH3 domains follow in the full mimetibody

EC50 (nM), cAMP expression assay [4]: 12.7 nM
B10: A2G GLP-2 mimetibody linker length variant SEQ ID NO: 8 (Fc fusion, part only; not given: CH2 and CH3 domains, part only)
chain, part: HGDGSFSDEMNTILDNLAARDFINWLIQTKITDGGGGSGGGGSGGGGSCPPCP
modifications: cysteine pairing not given here; also: partial core, CH2-CH3 domains follow in the full mimetibody

EC50 (mutated human GLP-2R [1]; [8]): 2.1 nM
B11: SEQ ID NO: 10: A2G GLP-2 mimetibody linker variant; core HGDGSFSDEMNTILDNLAARDFINWLIQTKITDGGGGSGGGGSGGGGSGGGGSGGGGSCPPCP (protein)
chain: HGDGSFSDEMNTILDNLAARDFINWLIQTKITDGGGGSGGGGSGGGGSGGGGSGGGGSCPPCP
modifications: chains of the parent or of the whole protein

activity in cAMP expression assay, fold less than wild type GLP-2 (mutated human GLP-2R [5]): 2 fold | cAMP in Vitro EC50 values (mutated human GLP-2R [6]): 3.5 nM
B12: GLP-2(A2G, N16G, L17Q) (peptide)
peptide: HGDGSFSDEMNTILDGQAARDFINWLIQTKITD
notes: Synthetic analog of human GLP-2, >95% purity; also called GLP-2(A2G,N16G, L17Q) peptide
binding result [7]: no binding (tested: 1 mg/ml)

activity in cAMP expression assay, fold less than wild type GLP-2 (mutated human GLP-2R [5]): 3 fold | cAMP in Vitro EC50 values (mutated human GLP-2R [6]): 5.2 nM
B13: GLP-2(A2G, L17Q) (peptide)
peptide: HGDGSFSDEMNTILDNQAARDFINWLIQTKITD
notes: Synthetic analog of human GLP-2, >95% purity; also called GLP-2(A2G, L17Q) peptide
binding result [7]: no binding (tested: 1 mg/ml)

EC50, cAMP expression (mutated human GLP-2R [5]): 0.5 nM
Molecule: HSDGSFSDEMNTILDNLAARDFINWLIQTKITD [A2S GLP-2 peptide]
